Laboratory results: patent US20200113821A1

Biological target: c-Kit (CD117; mast/stem cell growth factor receptor) on CD117+ bone marrow cells of β-globin/GFP transgenic mice (mouse) (UniProt P05532)
Test: cell-based or functional assay

Sequence of UniProt P05532 (P05532 25-979): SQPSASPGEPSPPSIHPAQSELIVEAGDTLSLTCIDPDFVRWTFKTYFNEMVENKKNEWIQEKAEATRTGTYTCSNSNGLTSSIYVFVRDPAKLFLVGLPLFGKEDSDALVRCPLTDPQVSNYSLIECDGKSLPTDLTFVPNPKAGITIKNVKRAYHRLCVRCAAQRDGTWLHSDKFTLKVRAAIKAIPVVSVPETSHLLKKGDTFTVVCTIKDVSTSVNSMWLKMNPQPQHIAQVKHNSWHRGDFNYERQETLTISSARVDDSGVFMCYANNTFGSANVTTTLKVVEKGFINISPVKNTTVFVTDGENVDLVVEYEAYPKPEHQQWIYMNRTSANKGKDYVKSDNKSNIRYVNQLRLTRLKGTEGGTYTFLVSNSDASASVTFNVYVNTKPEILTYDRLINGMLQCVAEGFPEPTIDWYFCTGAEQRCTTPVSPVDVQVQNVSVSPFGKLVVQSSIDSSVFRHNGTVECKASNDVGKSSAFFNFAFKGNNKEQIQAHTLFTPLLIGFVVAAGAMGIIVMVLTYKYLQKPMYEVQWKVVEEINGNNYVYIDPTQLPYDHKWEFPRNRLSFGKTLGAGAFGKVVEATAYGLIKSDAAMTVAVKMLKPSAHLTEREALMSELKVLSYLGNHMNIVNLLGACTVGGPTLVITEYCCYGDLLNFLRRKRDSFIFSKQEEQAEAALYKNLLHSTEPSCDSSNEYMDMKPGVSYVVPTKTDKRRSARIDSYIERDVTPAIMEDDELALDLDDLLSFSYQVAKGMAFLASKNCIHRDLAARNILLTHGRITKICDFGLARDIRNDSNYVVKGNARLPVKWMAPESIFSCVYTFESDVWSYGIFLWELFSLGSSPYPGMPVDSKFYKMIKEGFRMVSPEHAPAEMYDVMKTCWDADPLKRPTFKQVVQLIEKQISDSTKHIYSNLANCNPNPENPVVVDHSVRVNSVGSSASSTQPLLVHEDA

**Q.** Which results are given for “Recombinant murine SCF (stem cell factor), catalog #250-03, PeproTech (from UniProt P20826 26-189) (ligand)”?
**A.** HDR activity (recombination between reporter gene constructs) in CD117+ cells: 2 fold; γtcPNA4/donor DNA-mediated gene editing (% GFP expressing CD117+ cells, flow cytometry): 15%
